Test results taken from patent US20200264182A1, “METHOD FOR DETECTING PROSTATE CANCER” (J-OIL MILLS, INC., priority 2017, published 2020).

Assays:
[1] = FAC binding constant (Table 5 entry); settings: Table 5: sugar chain having no fucose; at 25° C.
Experimental: (§1) Details of the FAC method are described in Patent Document 2 filed by some of the present applicants, for example.
(§2) Binding constants (at 25° C.) of PhoSL, SRL, NSL and LSL belonging to the fucose α1→6 specific lectin for various sugar chains are shown in Tables 2 to 5.

[2] = Binding to sugar chains, summary of Tables 2 to 5; settings: sugar chains No. 015, 201 to 203, and 401 to 418
Experimental: as §1, §2
(§3) The AAL and AOL bind to the fucose α1→6 sugar chains (sugar chains No. 015, 201 to 203, and 401 to 418), as well as to the glycolipid-type sugar chain excluding the fucose α1→6 (sugar chains No. 718, 722, 723, 727, 909, 910 and 933). The LCL and PSL bind to the fucose α1→6 sugar chain, as well as to sugar chain excluding the α1→6 fucose (sugar chains No. 003, and 005 to 014).
Furthermore, the binding constant of the fucose α1→6 specific lectin is not decreased even if a sialic acid is added to the fucose α1→6 sugar chain (sugar chains No. 601 and 602). In addition, the fucose α1→6 specific lectin also strongly binds to the triple-strand (sugar chains No. 407 to 413) and the four-strand (sugar chains No. 418) of the fucose uα1→6 sugar chain.

serum fucosylated PSA = assay: Sandwich ELISA, anti-PSA antibody and biotin-labeled lectin; type: binding, human
Experimental: The anti-PSA antibody from which sugar chains had been removed was diluted to 5 μg/mL with PBS. 25 μL of this diluted solution was added to each well of an ELISA plate and allowed to stand at 37° C. for 12 hours, and then the additive solution was discarded.
150 μL of PBS containing 0.05% Tween 20 (product name: polyoxyethylene sorbitan monolaurate, from Nacalai Tesque, Inc.) was added to each well, and then the additive solution was discarded. This manipulation was repeated three times in total.
25 μL of 1% BSA/PBS was added to each well and allowed to stand at 37° C. for 1 hour, and then the additive solution was discarded.
150 μL of PBS containing 0.05% Tween 20 was added to each well, and then the additive solution was discarded. This manipulation was repeated three times in total.
To graph a calibration curve, 25 μL of the fucosylated PSA reference standard diluted with 1% BSA/PBS to a concentration of 0 to 200 ng/mL was added to each well and allowed to stand at room temperature for 1 hour, and then the additive solution was discarded. In addition, to detect the fucosylated PSA in the serum of the subject by the lectin, 25 μL of serum of “Healthy 1” and “Prostate cancer 4” 2-fold diluted with PBS was added to each well and allowed to stand at room temperature for 1 hour, and then the additive solution was discarded.
In Reference Example 1, 25 μL of a biotin-labeled PhoSL diluted to 0.1 μg/mL with 0.1% BSA/PBS (pH 7.4) was added to each well and allowed to stand at 4° C. for 30 minutes, and then the additive solution was discarded. In Example 1, 25 μL of a biotin-labeled PhoSL diluted to 0.1 μg/mL with 0.1% BSA/10-fold diluted PBS+glycine-NaOH (pH 9.6) was added to each well and allowed to stand at 4° C. for 30 minutes, and then the additive solution was discarded.
25 μL of a horseradish peroxidase (HRP)-labeled streptavidin solution (from Vector Laboratories, Inc., concentration: 0.4 μg/mL, in 1% BSA/PBS) was added to each well and allowed to stand at room temperature for 30 minutes, and then the additive solution was discarded.
25 μL of chromogenic substrate for HRP (product name: TMB, from Kirkegaard & Perry Laboratories, Inc.) was added to each well and allowed to stand at room temperature for 10 minutes.
25 μL of 1M phosphoric acid was added to terminate the reaction.
Absorbance (Ab) at 450 nm and 630 nm was measured using a plate reader, and a measurement (Ab450-630) was obtained.
A calibration curve was graphed by plotting signals (reaction values, Ab450-630) of the fucosylated PSA reference standard with the biotin-labeled PhoSL. A Signal (Ab450-630) of the biotin-labeled PhoSL corresponding to the fucosylated PSA concentration of 10 ng/mL was defined as 10 U/mL.
The signals of biotin-labeled PhoSL (Ab450-630) for the serum fucosylated PSA in the subject samples A were assigned to the calibration curve to calculate reaction values (unit: U/mL).
The PhoSL reaction values for the subject samples A were measured by the same operation as in Example 1. From the PhoSL reaction values, an average value and a median value were determined. Furthermore, a standard cutoff value (89.7 U/mL) was used to determine a detection rate (positive rate) of the prostate cancer patients, and a false detection rate (false positive rate) of the healthy persons.
Comparative Example 2 in Table 9 indicates results of detecting the serum fucosylated PSA using AAL (AAL reaction values) in the subject samples A. Specifically, in Reference Example 1, AAL reaction values were measured in the same manner as in Reference Example 1 except that the biotin-labeled PhoSL was replaced with a biotin-labeled AAL. A standard cut-off value for the AAL reaction values was 894.8 U/mL. As in Example 2, an average value, a median value, a positive rate and a false positive rate were determined from the AAL reaction values.

[3] = Binding to sugar chains, summary of Tables 2 to 5; settings: sugar chains No. 718, 722, 723, 727, 909, 910 and 933
Experimental: as §1, §2, §3

[4] = subject samples A, 7 healthy persons, pH 7.4
[5] = subject samples A, 9 patients, pH 7.4

Binding constant for sugar chain No. 728 [1]: <1000 M⁻¹
binding to the fucose α1→6 sugar chains (in words) [2]: bind
B1: AAL: Aleuria aurantia lectin, has affinity for fucose α1→6 but is not specific; from J-OIL MILLS, Inc. (protein)
chain: PTEFLYTSKIAAISWAATGGRQQRVYFQDLNGKIREAQRGGDNPWTGGSSQNVIGEAKLFSPLAAVTWKSAQGIQIRVYCVNKDNILSEFVYDGSKWITGQLGSVGVKVGSNSKLAALQWGGSESAPPNIRVYYQKSNGSGSSIHEYVWSGKWTAGASFGSTVPGTGIGATAIGPGRLRIYYQATDNKIREHCWDSNSWYVGGFSASASAGVSIAAISWGSTPNIRVYWQKGREELYEAAYGGSWNTPGQIKDASRPTPSLPDTFIAANSSGNIDISVFFQASGVSLQQWQWISGKGWSIGAVVPTGTPAGW
lectin reaction value B of Healthy 1 (serum fucosylated PSA; serum of Healthy 1, pH in lectin reaction 7.4): 1099.6 U/mL
lectin reaction value of Healthy 2 (serum fucosylated PSA; serum of Healthy 2, pH in lectin reaction 7.4): 854.6 U/mL
lectin reaction value of Healthy 3 (serum fucosylated PSA; serum of Healthy 3, pH in lectin reaction 7.4): 1062.7 U/mL
lectin reaction value of Healthy 4 (serum fucosylated PSA; serum of Healthy 4, pH in lectin reaction 7.4): 115.0 U/mL
lectin reaction value of Healthy 5 (serum fucosylated PSA; serum of Healthy 5, pH in lectin reaction 7.4): 32.3 U/mL
lectin reaction value of Healthy 6 (serum fucosylated PSA; serum of Healthy 6, pH in lectin reaction 7.4): 1193.1 U/mL
lectin reaction value of Healthy 7 (serum fucosylated PSA; serum of Healthy 7, pH in lectin reaction 7.4): 1028.8 U/mL
lectin reaction value of Prostate cancer 1 (serum fucosylated PSA; serum of Prostate cancer 1, GS 4 (2 + 2), pH in lectin reaction 7.4): 831.2 U/mL
lectin reaction value of Prostate cancer 2 (serum fucosylated PSA; serum of Prostate cancer 2, GS 5 (2 + 3), pH in lectin reaction 7.4): 1032.3 U/mL
lectin reaction value of Prostate cancer 3 (serum fucosylated PSA; serum of Prostate cancer 3, GS 6 (3 + 3), pH in lectin reaction 7.4): 1152.7 U/mL
lectin reaction value A of Prostate cancer 4 (serum fucosylated PSA; serum of Prostate cancer 4, GS 6 (3 + 3), pH in lectin reaction 7.4): 926.5 U/mL
lectin reaction value of Prostate cancer 5 (serum fucosylated PSA; serum of Prostate cancer 5, GS 7 (3 + 4), pH in lectin reaction 7.4): 1025.0 U/mL
lectin reaction value of Prostate cancer 6 (serum fucosylated PSA; serum of Prostate cancer 6, GS 7 (3 + 4), pH in lectin reaction 7.4): 961.5 U/mL
lectin reaction value of Prostate cancer 7 (serum fucosylated PSA; serum of Prostate cancer 7, GS 8 (3 + 5), pH in lectin reaction 7.4): 1211.9 U/mL
lectin reaction value of Prostate cancer 8 (serum fucosylated PSA; serum of Prostate cancer 8, GS 8 (4 + 4), pH in lectin reaction 7.4): 1010.0 U/mL
lectin reaction value of Prostate cancer 9 (serum fucosylated PSA; serum of Prostate cancer 9, GS 8 (4 + 4), pH in lectin reaction 7.4): 988.1 U/mL
reaction value, Healthy person group, Average value (serum fucosylated PSA; [4]): 769.4 U/mL
reaction value, Healthy person group, Median value (serum fucosylated PSA; [4]): 1028.8 U/mL
reaction value, Prostate cancer patient group, Average value (serum fucosylated PSA; [5]): 1015.5 U/mL
reaction value, Prostate cancer patient group, Median value (serum fucosylated PSA; [5]): 1010.0 U/mL
reaction value, GS6, Mean value (serum fucosylated PSA; subject samples A, n 2, pH 7.4): 1039.6 U/mL
reaction value, GS6, Median value (serum fucosylated PSA; subject samples A, n 2, pH 7.4): 1039.6 U/mL
reaction value, GS7, Mean value (serum fucosylated PSA; subject samples A, n 2, pH 7.4): 993.3 U/mL
reaction value, GS7, Median value (serum fucosylated PSA; subject samples A, n 2, pH 7.4): 993.3 U/mL
reaction value, Negative (GS5 or less), Mean value (serum fucosylated PSA; subject samples A, n 2, pH 7.4): 931.8 U/mL
reaction value, Negative (GS5 or less), Median value (serum fucosylated PSA; subject samples A, n 2, pH 7.4): 931.8 U/mL
reaction value, GS8 or more, Mean value (serum fucosylated PSA; subject samples A, n 3, pH 7.4): 1070.0 U/mL
reaction value, GS8 or more, Median value (serum fucosylated PSA; subject samples A, n 3, pH 7.4): 1010.0 U/mL
binding to the glycolipid-type sugar chain excluding the fucose α1→6 (in words) [3]: bind
